“And” between values parts separate entries of the source, which are not always exact repeats. Identical values can stand only once. Bounds are passed on as bounds.

Nine molecules from US20020155575 can be followed below.

First the molecules themselves.
T1: trypsin inhibitor type IV-0 (Ovo-inhibitor), Sigma T-1886, P10184
T1 chain: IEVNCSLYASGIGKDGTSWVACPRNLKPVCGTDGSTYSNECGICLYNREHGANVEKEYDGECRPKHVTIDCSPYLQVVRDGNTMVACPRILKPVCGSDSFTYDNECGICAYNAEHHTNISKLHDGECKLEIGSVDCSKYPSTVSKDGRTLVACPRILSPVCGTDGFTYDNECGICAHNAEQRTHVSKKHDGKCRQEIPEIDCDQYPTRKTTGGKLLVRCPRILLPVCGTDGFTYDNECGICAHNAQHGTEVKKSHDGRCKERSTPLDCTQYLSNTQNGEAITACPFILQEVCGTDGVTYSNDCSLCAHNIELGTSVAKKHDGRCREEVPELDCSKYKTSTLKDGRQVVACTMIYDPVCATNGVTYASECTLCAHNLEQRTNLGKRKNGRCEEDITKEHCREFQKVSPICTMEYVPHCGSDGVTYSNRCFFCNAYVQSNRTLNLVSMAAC

T2: trypsin inhibitor type IV-0 (Ovo-inhibitor), Sigma T-1886 (UniProt P10184)
T2 sequence: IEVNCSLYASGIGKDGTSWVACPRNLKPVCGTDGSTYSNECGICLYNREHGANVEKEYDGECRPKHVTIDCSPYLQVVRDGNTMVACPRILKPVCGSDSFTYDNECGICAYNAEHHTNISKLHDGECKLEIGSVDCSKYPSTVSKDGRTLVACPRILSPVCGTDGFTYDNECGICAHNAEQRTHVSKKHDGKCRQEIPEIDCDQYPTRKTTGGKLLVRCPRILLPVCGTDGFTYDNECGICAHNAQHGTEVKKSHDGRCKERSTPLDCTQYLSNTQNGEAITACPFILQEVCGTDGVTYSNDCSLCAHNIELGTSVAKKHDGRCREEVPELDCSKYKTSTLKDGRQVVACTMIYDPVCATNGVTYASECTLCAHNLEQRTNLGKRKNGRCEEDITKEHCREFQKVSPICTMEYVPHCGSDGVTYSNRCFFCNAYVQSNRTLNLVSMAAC

B1: SAVINASE (subtilisin 309 from B. lentus) (protein)
chain: AQSVPWGISRVQAPAAHNRGLTGSGVKVAVLDTGISTHPDLNIRGGASFVPGEPSTQDGNGHGTHVAGTIAALNNSIGVLGVAPSAELYAVKVLGASGSGSVSSIAQGLEWAGNNGMHVANLSLGSPSPSATLEQAVNSATSRGVLVVAASGNSGAGSISYPARYANAMAVGATDQNNNRASFSQYGAGLDIVAPGVNVQSTYPGSTYASLNGTSMATPHVAGAAALVKQKNPSWSNVQIRNHLKNTATSLGSTNLYGSGLVNAEAATR

One data set deals with T1, trypsin inhibitor type IV-0 ….
B1: the “Residual Activity (%)” value is given as <5%.

In a further data set the target is T2, trypsin inhibitor type IV-0 (Ovo-inhibitor), Sigma T-1886.
Take “subtilisin 309 variant S99D + S101R + S103A + V104I + G160S + A194P + V199M + V205I + *216aE”: the “Residual Activity (%)” value was 25.4%.

In the case of “subtilisin 309 variant S99SD + S99A + N155NR”, the “Residual Activity (%)” value turned out to be 6.5%. For the molecule “subtilisin 309 variant S99SD + S99A + S216SDP”, the “Residual Activity (%)” value is 35.0%.

In the case of “subtilisin 309 variant L217LP + S99SD + S99A”, the “Residual Activity (%)” value is 97.0%.

Regarding subtilisin 309 variant L42LN, the “Residual Activity (%)” value worked out at 69.2%. On the same count and under the same terms, to “subtilisin 309 variant S99D + S101R + S103A + V104I + G160S + A194P + V199M + V205I + *216aD” belongs 24.0%; to “subtilisin 309 variant S99SD + S99A + N155ND”, 10.7% and 7.1%; to “subtilisin 309 variant S99SD + S99A + N155NA”, 7.4%.
